# Assay results from the supplement of paper PMC10567573.
# B1: NECAB1 (parent)
# chain: NLDTEELCEYFSQHLGEYENVLAA
# Variants of: B1
# Assay: protein stability index of a GFP-peptide fusion (GPS, HEK-293T) (PSI 1-6); higher = more stable
# Conditions: c terminus: a fixed tail appended
# 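Further: lentivirally expressed fusions sorted by FACS into six bins by GFP to DsRed ratio, PSI derived from sequencing read proportions per bin multiplied by bin number.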
row,Variant,protein stability index
1,NLDTEELCEYFSQHLGEYECVLAA [N20C],2.05
2,NLDTEELCEYFSQHLGEYETVLAA [N20T],1.78
3,NLDTEELCEYFSQHLGEYESVLAA [N20S],3.05
4,NLDTEELCEYFSQHLGEYEDVLAA [N20D],2.71
5,NLDTEELCEYFSQHLGEYEHVLAA [N20H],2.67
6,NLDTEELCEYFSQHLGEYEFVLAA [N20F],1.66
7,NLDTEELCEYFSCHLGEYENVLAA [Q13C],2.06
8,NLDTEELCEYFSMHLGEYENVLAA [Q13M],2.06
9,NLDTEELCEYFSDHLGEYENVLAA [Q13D],4.13
10,NLDTEELCEYFSVHLGEYENVLAA [Q13V],2.7
11,NLDTEELCEYFSFHLGEYENVLAA [Q13F],2.27
12,MLDTEELCEYFSQHLGEYENVLAA [N1M],3.17
13,KLDTEELCEYFSQHLGEYENVLAA [N1K],3.33
14,FLDTEELCEYFSQHLGEYENVLAA [N1F],1.68
15,QLDTEELCEYFSQHLGEYENVLAA [N1Q],3.41
16,YLDTEELCEYFSQHLGEYENVLAA [N1Y],1.83
17,WLDTEELCEYFSQHLGEYENVLAA [N1W],1.71
18,ELDTEELCEYFSQHLGEYENVLAA [N1E],3.7
19,NLDPEELCEYFSQHLGEYENVLAA [T4P],3.56
20,NLDIEELCEYFSQHLGEYENVLAA [T4I],2.41
21,NLDHEELCEYFSQHLGEYENVLAA [T4H],4.26
22,NLDMEELCEYFSQHLGEYENVLAA [T4M],2.66
23,NLDAEELCEYFSQHLGEYENVLAA [T4A],2.75
24,NLDFEELCEYFSQHLGEYENVLAA [T4F],2.32

row,Variant,protein stability index
1,NLDKEELCEYFSQHLGEYENVLAA [T4K],2.69
2,NLDEEELCEYFSQHLGEYENVLAA [T4E],4.15
3,NLDNEELCEYFSQHLGEYENVLAA [T4N],3.62
4,NLDTEELCEYDSQHLGEYENVLAA [F11D],4.87
5,NLDTEELCEYMSQHLGEYENVLAA [F11M],3.48
6,NLDTEELCEYGSQHLGEYENVLAA [F11G],4.55
7,NLDTEELCEYSSQHLGEYENVLAA [F11S],4.65
8,NLDTEELCEYFSQHLAEYENVLAA [G16A],2.24
9,NLDTEELCEYFSQHLVEYENVLAA [G16V],2.07
10,NLDTEELCEYFSQHLIEYENVLAA [G16I],2.14
11,NLDTEELCEYFSQHLMEYENVLAA [G16M],1.99
12,NLDTEELCEYFSQHLTEYENVLAA [G16T],2.04
13,NLDTEELCEYFSQHLDEYENVLAA [G16D],2.29
14,NLDTEELCEYFSQHLWEYENVLAA [G16W],2.29
15,NLDTEELCEYFSQHLQEYENVLAA [G16Q],2.71
16,NLDTEELCEYFSQHLGEYENVLAL [A24L],2.82
17,NLDTEELCEYFSQHLGEYENVLAM [A24M],1.92
18,NLDTEELCEYFSQHLGEYENVLAC [A24C],2.25
19,NLDTEELCEYFSQHLGEYENVLAN [A24N],2.02
20,NLDTEELCEYFSQHLGEYENVLAH [A24H],3.35
21,NLDTEELCEYFSQHLGEYENVLAK [A24K],2.69
22,NLDTEELCEYFSQHLGEYENVLAW [A24W],2.27
23,NLDTEELCEYFSQHLGEYENVLAF [A24F],2.02
24,NLDTEELCEYFSQHLGEYENVLAY [A24Y],2.59

row,Variant,protein stability index
1,NLDTEELCEYFSQHLGEYENVLAG [A24G],2.22
2,NLDTEELCEYFSQHFGEYENVLAA [L15F],2.94
3,NLDTEELCEYFSQHGGEYENVLAA [L15G],4.38
4,NLDTEELCEYFSQHDGEYENVLAA [L15D],4.63
5,NLDTEELCEYFSQHTGEYENVLAA [L15T],3.28
6,NLDTEELCEYFSQHPGEYENVLAA [L15P],4.55
7,NLDTEELCEYFSQHIGEYENVLAA [L15I],1.97
8,NLDTEELCEYFSQHYGEYENVLAA [L15Y],2.93
9,NLLTEELCEYFSQHLGEYENVLAA [D3L],2.01
10,NLVTEELCEYFSQHLGEYENVLAA [D3V],1.53
11,NLHTEELCEYFSQHLGEYENVLAA [D3H],2.11
12,NLGTEELCEYFSQHLGEYENVLAA [D3G],1.48
13,NLYTEELCEYFSQHLGEYENVLAA [D3Y],1.94
14,NLMTEELCEYFSQHLGEYENVLAA [D3M],1.88
15,NLQTEELCEYFSQHLGEYENVLAA [D3Q],1.94
16,NLSTEELCEYFSQHLGEYENVLAA [D3S],2.55
17,NLKTEELCEYFSQHLGEYENVLAA [D3K],1.86
18,NLATEELCEYFSQHLGEYENVLAA [D3A],2.25
19,NLDTEELCEYFSQHLGEYINVLAA [E19I],4.56
20,NLDTEELCEYFSQHLGEYYNVLAA [E19Y],1.93
21,NLDTEELCEYFSQHLGEYKNVLAA [E19K],2.67
22,NLDTEELCEYFSQHLGEYTNVLAA [E19T],2.07
23,NLDTEELCEYFSQHLGEYGNVLAA [E19G],2.34
24,NLDTEELCEYFSQHLGEYENVKAA [L22K],4.61

row,Variant,protein stability index
1,NLDTEELCEYFSQHLGEYENVRAA [L22R],4.39
2,NLDTEELCEYFSQHLGEYENVFAA [L22F],1.86
3,NLDTEELCEYFSQHLGEYENVAAA [L22A],4.35
4,NLDTEELCEYFSQHLGEYENVNAA [L22N],4.36
5,NLDTEELCEYFSQHLGEYENVPAA [L22P],4.25
6,NLDTEELCEYFSQHLGEYENVSAA [L22S],4.64
7,NLDTEELCEYFSQHLGEYENVDAA [L22D],4.98
8,NLDTEELCEYFSQHLGEYENVQAA [L22Q],4.36
9,NLDTEELCEYFSQHLGEYENVTAA [L22T],4.36
10,NLDTEELCEYFSQHLGEYENVWAA [L22W],2.55
11,NLDTEELCEYFSQHLGEYENVCAA [L22C],4.64
12,NLDTEELSEYFSQHLGEYENVLAA [C8S],3.83
13,NLDTEELREYFSQHLGEYENVLAA [C8R],3.17
14,NLDTEELAEYFSQHLGEYENVLAA [C8A],2.98
15,NLDTEELTEYFSQHLGEYENVLAA [C8T],3.62
16,NLDTEELIEYFSQHLGEYENVLAA [C8I],2.52
17,NLDTEELGEYFSQHLGEYENVLAA [C8G],4.56
18,NLDTGELCEYFSQHLGEYENVLAA [E5G],1.99
19,NLDTFELCEYFSQHLGEYENVLAA [E5F],1.47
20,NLDTNELCEYFSQHLGEYENVLAA [E5N],2.4
21,NLDTHELCEYFSQHLGEYENVLAA [E5H],2.1
22,NLDTYELCEYFSQHLGEYENVLAA [E5Y],1.69
